Experimental data from patent US7566447B2, “Biocides” (Iogenetics, LLC, priority 2003, dated 2009).

Experiments:
Caco-2 Host Cells = test: Host cell toxicity assay by LDH release (CYTOTOX 96); format: cell-based, human; details: control medium alone for 2 h, 0-5% non toxic, 5-10% mild toxicity
Experimental: Host cell toxicity assay was performed by measuring the release of lactate dehydrogenase (LDH) in the medium using a CYTOTOX 96 Non-Radioactive Cytotoxicity Assay kit (Promega, Madison, Wis.). Toxicity was therefore classified as non toxic 0-5% LDH release and mild toxicity 5-10% LDH release (ref).

Caco-2 cells = test: Caco-2 cell viability by trypan blue dye exclusion; format: cell-based, human; details: 24 hrs, uninoculated control cells 91 %
Experimental: (§1) This experiment describes the effects of PLA2 on sporozoite infectivity. Briefly, sporozoites were incubated in an isotonic saline solution (37° C., 30 min) with a range of concentrations of PLA2 isolated from honey bee venom (Sigma-Aldrich Corp., St. Louis, Mo., 1.5 U/μg protein). Control sporozoites were identically incubated in buffer containing concentration-matched BSA but no PLA2. Sporozoites were then washed in medium and inoculated onto replicate Caco-2 human intestinal epithelial cell monolayers. 24 h later, infection was quantified in test and control monolayers by immunofluorescence assay as described herein and the mean percent reduction of infection calculated. […] Percent viability of Caco-2 cells following exposure to PLA2-treated sporozoites (86%) was similar to that of uninoculated control cells (91 %) at 24 hrs, as determined by trypan blue dye exclusion. […] Through fusion of PLA2 to a monoclonal antibody with a high affinity for sporozoites, such as 1E10 or 4H9, lethal concentrations of biocide are deliverable to the sporozoite surface with relatively low amounts of biocide being used.

C. parvum sporozoites = test: Effect of PLA2 on sporozoite infectivity for Caco-2 monolayers (immunofluorescence assay); format: cell-based, Cryptosporidium parvum
Experimental: as §1

Substance	% LDH release (Caco-2 Host Cells; 10 μg/ml) [%]	Percent viability of Caco-2 cells following exposure to PLA2-treated sporozoites (Caco-2 cells) [%]	PLA2 concentration effective in neutralization (C. parvum sporozoites; preliminary data) [units/ml]	PLA2 concentration achieving highly significant reduction of sporozoite infectivity (C. parvum sporozoites; sporozoites incubated 37° C., 30 min, Caco-2 monolayers, 24 h, P<0.0005) [U/ml]	% LDH release (Caco-2 Host Cells; 100 μg/ml) [%]
b-defensin 1 [βD1]	0.8 ± 1.0	–	–	–	–
bee-venom phospholipase A2 [PLA2]	–	86	< 0.02	0.014	–
cathelicidin	1.6 ± 0.3	–	–	–	5.6 ± 0.9
